Experimental findings from publication PMC2749469 (Biochemistry, 2009) are described below.

The series concerns the molecule itself. In words: SEC. (In general: SEC sorts molecules by how far they enter the pores of the column.)

B1: E. coli HemG (recombinant, six histidine-tagged) (enzyme, UniProt P0ACB4 1-181, looked up)
chain: MKTLILFSTRDGQTREIASYLASELKELGIQADVANVHRIEEPQWENYDRVVIGASIRYGHYHSAFQEFVKKHATRLNSMPSAFYSVNLVARKPEKRTPQTNSYARKFLMNSQWRPDRCAVIAGALRYPRYRWYDRFMIKLIMKMSGGETDTRKEVVYTDWEQVANFAREIAHLTDKPTLK
As to B1, the “stoichiometry N” value stood at 4.

As a reminder, the stoichiometry N is the number of molecules, sites or subunits per partner or assembly.
